Source: US6969760 (ST JUDE CHILDREN S RESEARCH HOSPITAL, dated 2005)

Legend:
Assay in all cases: pull-down from DA3(EPOR) cell extracts on GST-EPOR cytoplasmic domain beads, immunoblot
[1] = target: T1, murine Tec (murine, UniProt P24604 1-630, limits assumed)
T1 sequence (looked up): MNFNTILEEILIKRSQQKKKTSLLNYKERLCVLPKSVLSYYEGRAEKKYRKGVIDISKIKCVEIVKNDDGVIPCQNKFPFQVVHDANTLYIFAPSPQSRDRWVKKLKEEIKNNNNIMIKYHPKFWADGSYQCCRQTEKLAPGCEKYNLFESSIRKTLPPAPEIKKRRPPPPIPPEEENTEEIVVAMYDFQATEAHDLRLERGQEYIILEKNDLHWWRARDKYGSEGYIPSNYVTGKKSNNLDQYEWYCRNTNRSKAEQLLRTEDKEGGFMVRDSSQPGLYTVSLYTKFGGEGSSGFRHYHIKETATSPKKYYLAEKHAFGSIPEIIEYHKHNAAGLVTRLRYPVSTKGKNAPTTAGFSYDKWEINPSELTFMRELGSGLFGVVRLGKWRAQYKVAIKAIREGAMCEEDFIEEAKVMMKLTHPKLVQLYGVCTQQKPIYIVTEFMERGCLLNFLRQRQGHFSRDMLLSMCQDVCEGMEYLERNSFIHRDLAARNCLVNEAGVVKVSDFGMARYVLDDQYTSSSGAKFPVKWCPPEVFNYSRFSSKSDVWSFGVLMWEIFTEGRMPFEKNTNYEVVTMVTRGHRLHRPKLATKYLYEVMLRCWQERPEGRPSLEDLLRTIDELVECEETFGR
Description: (§1) The fusion proteins were purified by affinity binding to glutathione-sepharose beads and the proteins, on affinity beads, were incubated with extracts of unstimulated or EPO stimulated DA3(EPOR) cells. The bound proteins were recovered from the beads, resolved on SDS-PAGE and the gels blotted to nitrocellulose. The blots were subsequently probed with antisera against various tyrosine kinases.

[2] = target: c-fes (UniProt P16879 1-822)
Description: as §1

[3] = target: T2, lyn (UniProt P25911 2-512, limits assumed)
T2 construct: also called lyn kinase
Description: as §1

Measured: binding result

c-fes, sequence (P16879 whole entry): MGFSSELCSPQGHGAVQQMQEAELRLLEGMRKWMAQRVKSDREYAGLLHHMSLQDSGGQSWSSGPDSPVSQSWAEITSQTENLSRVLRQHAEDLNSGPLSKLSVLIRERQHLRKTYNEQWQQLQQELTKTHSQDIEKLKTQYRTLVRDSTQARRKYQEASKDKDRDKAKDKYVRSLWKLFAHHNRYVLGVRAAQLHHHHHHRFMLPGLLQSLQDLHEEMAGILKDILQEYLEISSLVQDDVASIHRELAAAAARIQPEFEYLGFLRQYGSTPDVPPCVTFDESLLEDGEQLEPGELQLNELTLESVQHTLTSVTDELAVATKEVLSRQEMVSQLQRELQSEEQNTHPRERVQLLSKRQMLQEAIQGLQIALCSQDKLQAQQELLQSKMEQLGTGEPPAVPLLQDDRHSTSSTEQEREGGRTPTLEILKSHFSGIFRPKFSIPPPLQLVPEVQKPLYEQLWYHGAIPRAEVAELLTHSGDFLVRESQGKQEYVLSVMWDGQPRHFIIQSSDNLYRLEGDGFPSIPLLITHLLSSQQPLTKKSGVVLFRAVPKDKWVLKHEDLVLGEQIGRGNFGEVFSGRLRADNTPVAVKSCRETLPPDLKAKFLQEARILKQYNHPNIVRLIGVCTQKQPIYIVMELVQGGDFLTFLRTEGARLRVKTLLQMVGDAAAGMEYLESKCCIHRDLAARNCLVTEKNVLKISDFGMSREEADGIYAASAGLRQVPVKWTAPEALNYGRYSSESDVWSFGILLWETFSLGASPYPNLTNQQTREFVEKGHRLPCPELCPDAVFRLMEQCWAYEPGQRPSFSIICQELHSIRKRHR
T2 sequence (P25911 2-512 limits assumed): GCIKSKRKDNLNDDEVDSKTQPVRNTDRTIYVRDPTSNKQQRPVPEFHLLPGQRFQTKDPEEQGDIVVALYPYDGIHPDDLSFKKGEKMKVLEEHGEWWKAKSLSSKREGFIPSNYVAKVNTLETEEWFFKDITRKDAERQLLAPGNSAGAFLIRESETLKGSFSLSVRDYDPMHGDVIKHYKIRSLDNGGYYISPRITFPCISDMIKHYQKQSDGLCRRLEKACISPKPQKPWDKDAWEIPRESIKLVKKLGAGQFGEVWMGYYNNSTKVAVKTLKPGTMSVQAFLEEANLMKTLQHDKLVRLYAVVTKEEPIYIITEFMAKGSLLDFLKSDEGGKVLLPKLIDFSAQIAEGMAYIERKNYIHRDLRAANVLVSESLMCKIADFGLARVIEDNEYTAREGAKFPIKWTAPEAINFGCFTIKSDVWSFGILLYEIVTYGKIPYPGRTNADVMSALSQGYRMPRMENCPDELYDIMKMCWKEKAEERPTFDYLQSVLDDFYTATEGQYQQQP

B1: GST fusion protein containing the full length murine EPOR cytoplasmic domain (amino acids 257-483) (other, UniProt P14753 281-507, looked up)
chain: IWPGIPSPESEFEGLFTTHKGNFQLWLLQRDGCLWWSPGSSFPEDPPAHLEVLSEPRWAVTQAGDPGADDEGPLLEPVGSEHAQDTYLVLDKWLLPRTPCSENLSGPGGSVDPVTMDEASETSSCPSDLASKPRPEGTSPSSFEYTILDPSSQLLCPRALPPELPPTPPHLKYLYLVVSDSGISTDYSSGGSQGVHGDSSDGPYSHPYENSLVPDSEPLHPGYVACS
notes: range 257-483; Expressed in E. coli and immobilised on glutathione-sepharose; also called GST-EPOR fusion protein; fusion protein containing the complete cytoplasmic domain; not shown: amino-terminal glutathione-S-transferase (GST) domain encoded by pGEX-2T
no binding: all assays above
